In assay [1] the target is Human P-selectin (CD62P) on human platelets in whole blood (human) (UniProt P16109). The experiment in a line: flow cytometry, human whole blood, platelets activated with 2.5 uM ADP. A general note: In flow cytometry, cells or beads pass a laser one at a time.
For assay [2] the target is unchanged. The experiment in a line: flow cytometry, human whole blood, platelets activated with 200 uM TRAP.
For assay [3] the target is unchanged. The assay is described as follows: flow cytometry, human whole blood, non-activated platelets.

UniProt P16109, sequence (P16109 42-830): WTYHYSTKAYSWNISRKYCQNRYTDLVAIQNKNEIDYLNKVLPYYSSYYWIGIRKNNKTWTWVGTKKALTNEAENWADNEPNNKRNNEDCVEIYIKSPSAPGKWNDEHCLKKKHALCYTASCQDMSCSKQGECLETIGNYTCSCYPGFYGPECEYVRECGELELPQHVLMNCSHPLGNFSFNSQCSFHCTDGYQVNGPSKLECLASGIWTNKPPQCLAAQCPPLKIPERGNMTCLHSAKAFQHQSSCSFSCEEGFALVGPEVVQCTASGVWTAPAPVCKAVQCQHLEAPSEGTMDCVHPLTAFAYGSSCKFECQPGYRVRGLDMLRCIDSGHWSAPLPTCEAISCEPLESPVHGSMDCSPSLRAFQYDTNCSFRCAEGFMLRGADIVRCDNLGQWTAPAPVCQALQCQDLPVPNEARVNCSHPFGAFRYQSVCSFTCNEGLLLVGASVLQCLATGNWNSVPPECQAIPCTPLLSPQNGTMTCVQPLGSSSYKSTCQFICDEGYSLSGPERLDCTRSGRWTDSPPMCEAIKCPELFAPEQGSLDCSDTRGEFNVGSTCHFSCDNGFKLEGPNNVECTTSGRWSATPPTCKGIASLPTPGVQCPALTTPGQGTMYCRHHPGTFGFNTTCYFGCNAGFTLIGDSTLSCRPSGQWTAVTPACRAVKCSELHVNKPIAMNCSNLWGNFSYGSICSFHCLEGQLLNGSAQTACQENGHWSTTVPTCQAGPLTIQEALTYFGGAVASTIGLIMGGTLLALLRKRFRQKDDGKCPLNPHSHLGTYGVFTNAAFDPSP

For the substance “PC5-labeled antihuman P-selectin (CD62P, AK-4 clone) (antibody)”, the positivity (% of platelets) in assay [1] turned out to be 73.4%; in assay [2], 97.8%; in assay [3] it was 0.4%.
